Data on 138 substances can be found in the supplement of paper PMC12042874.

± gives the uncertainty stated by the source.

The nature of this series: amyloid nucleation score (Sup35N fusion, yeast selection) (log enrichment); library NNK1; higher = more nucleation; inactive = no reads after selection. An outline of the steps:
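On medium lacking adenine and uracil, psi-negative yeast expressing peptides of 20 random codons fused to Sup35N were grown 7 days at 30°C after a 24-hour induction with 100 μM copper sulfate. Illumina sequencing of input and output plasmid inserts gave the reads, and sequences under 100 input reads were excluded. The nucleation score is the DiMSum log enrichment of output over input reads, centred on the mode score of non-aggregating sequences.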
The substance VFFNLIKRWEVVREDTM registered an amyloid nucleation score of -0.426 ± 0.35.

For YRSYTRNWTLTIPGCTLRSL, the amyloid nucleation score is -1.93 ± 2.7.

On to QRSLLDDRYNAICSSNTNVE, for which the amyloid nucleation score worked out at 0.184 ± 0.35.

Turning to LIFLKLSSIRYFLMGHY, the amyloid nucleation score was found to be 1.43 ± 0.25.

SYLFVKGLIYSLSRLCLEVN returned an amyloid nucleation score of -1.4 ± 0.7.

In the case of VMFPGKQHT, the amyloid nucleation score was 0.012 ± 0.91.

VSCQQTFASLFFGILAGKSI: the amyloid nucleation score is -0.006 ± 0.54.

Regarding KRTESKLDYFKVRLCRTRFS, the amyloid nucleation score worked out at 0.122 ± 0.43.

DNAYDRVGTQGSAWFCGDCL yielded an amyloid nucleation score of -0.655 ± 0.64.

The substance GFVTWPLSRSPGSPGCAALM gave an amyloid nucleation score of 0.015 ± 0.39.

In the case of VSKLICVFTGSYRNLEGYRI, the amyloid nucleation score is 0.041 ± 0.39.

The substance SSSHPSLIGNLDTRLNWMTM showed an amyloid nucleation score of 1.52 ± 0.32.

Take QDGLGLTDAVRRTGFVGRTH: the amyloid nucleation score worked out at 0.197 ± 0.86.

As for CSGNLVMVLSAACAKVGYLV, the amyloid nucleation score is -1.48 ± 1.7.

EVSIFGDRIHIELHLVGEVL had an amyloid nucleation score of -1.12 ± 2.1.

As for WPGMPRS, the amyloid nucleation score is 1.17 ± 0.35.

With DMPFSDFMN, the amyloid nucleation score is -0.096 ± 0.47.

KGDVPGYARCEVKTVRTFWM displayed an amyloid nucleation score of 0.231 ± 0.41.

Substance TLRVLFCRTMRRVDWSVQKV gave an amyloid nucleation score of -1.03 ± 1.7.

Turning to PPHLLFCYNMVLTWWLYAFA, the amyloid nucleation score was 0.088 ± 1.2.

For GRSTNSSDISNHMRNS, the amyloid nucleation score was 0.961 ± 0.31.

For the substance IISTWSYGSES, the amyloid nucleation score was found to be 2.43 ± 0.14.

Turning to VNSGVNCMTVFVVVSLLSCG, the amyloid nucleation score came out at 2.98 ± 0.11.

VLKHCWVGIFAQW returned an amyloid nucleation score of 9.006 ± 0.052.

Take HWNHYWQ: the amyloid nucleation score is -0.07 ± 0.46.

The substance KTWRHSFLYFLTGIESRKGA yielded an amyloid nucleation score of 0.094 ± 0.26.

NVSVVSSHMLICMGMATRNP returned an amyloid nucleation score of 1.92 ± 0.36.

With KVASSDMSDLSTH, the amyloid nucleation score entry is “inactive”.

QSVWEYNGTFSLRYRDMTGY displayed an amyloid nucleation score of 0.477 ± 0.65.

Regarding VRLMSTAMLRRLELVLYST, the amyloid nucleation score is 0.539 ± 0.32.

VFLLKDRNTTCLWKSVIQQM returned an amyloid nucleation score of 0.494 ± 0.34.

Consider SHLTRDSILRVRVCWTNCVQ, for which the amyloid nucleation score was -0.026 ± 0.59.

With RCMNWVKCDRNPCVMLSIGT, the amyloid nucleation score result was “inactive”.

As for GISSVG, the amyloid nucleation score came out at 0.677 ± 0.4.

In turn, TISSLNLTRLSLDIFDFQSQ displayed an amyloid nucleation score of 3.25 ± 0.21.

Substance GQEVHISIVNVLQFEYNRYD had an amyloid nucleation score of 6.074 ± 0.05.

For the substance SCFTTF, the amyloid nucleation score was -1.54 ± 1.2.

The substance VHFDRCDLWPGMM came in with an amyloid nucleation score of 0.136 ± 0.76.

NSHRNSWSYMRHYSQSLMC had an amyloid nucleation score of 0.227 ± 0.74.

Substance LWVVRI came in with an amyloid nucleation score of 0.67 ± 0.85.

In the case of DSVVCRKYDVIGKCQRRGTC, the amyloid nucleation score turned out to be 0.716 ± 0.61.

LSRSYYNQFLTDFKGSGTYM showed an amyloid nucleation score of -0.269 ± 0.64.

The substance IRTCLVSIVATRCKVGVESP registered an amyloid nucleation score of 0.403 ± 0.34.

WHKMMQLSLCSEYELLFNLQ showed an amyloid nucleation score of 0.51 ± 0.9.

As for WKVKLNGIG, the amyloid nucleation score came to 0.341 ± 0.28.

As to DIIWMFWRIINSPFFTQSVV, the amyloid nucleation score is -0.176 ± 0.26.

Consider MADFFIHCFLSSYCEWFIWR, for which the amyloid nucleation score was -0.283 ± 0.46.

Take IYRFSCETHIFQYSRQVLFG: the amyloid nucleation score came out at 0.786 ± 0.63.

SKLLHMEWNQELDPSLSLLS: the amyloid nucleation score was -1.14 ± 0.66.

As for MHYRGKFLHDHWHESH, the amyloid nucleation score was -0.485 ± 1.1.

On to SLSFTEVGRNRLSWRSAHSK, for which the amyloid nucleation score is -0.616 ± 1.7.

The substance NDVTVID registered an amyloid nucleation score of 0.286 ± 0.17.

In the case of NLDVYFLVRWLLSCRCACRS, the amyloid nucleation score came to 0.87 ± 0.62.

TDFPELWSNLFQPNGFRYGL registered an amyloid nucleation score of 0.114 ± 0.92.

VVDEVNTGNHDLTTSLLQLS had an amyloid nucleation score of -0.435 ± 0.68.

QRVRNRM showed an amyloid nucleation score of 0.03 ± 0.33.

For EVLKVSHSF, the amyloid nucleation score was -0.009 ± 0.46.

Substance GILVCLNYLGLFVVYHGFVW came in with an amyloid nucleation score of 1.33 ± 0.56.

Substance GFALECESEVWSCYYTIRII had an amyloid nucleation score of 0.444 ± 0.43.

In turn, NFFFRMNIN showed an amyloid nucleation score of 2.18 ± 0.39.

The substance VFEADQNENGTTAPSEAQDR came in with an amyloid nucleation score of -0.088 ± 0.3.

As to GVFRLMDRNNI, the amyloid nucleation score is 0.653 ± 0.61.

SMIGCYMTF came in with an amyloid nucleation score of 0.073 ± 0.36.

In turn, TVVEVRGVEQRHGLNCTNPG gave an amyloid nucleation score of -0.05 ± 0.57.

QGTRGRCGFSRDEVECVVRR: the amyloid nucleation score is -0.673 ± 1.

In the case of RIDQNICGIVNMVFR, the amyloid nucleation score was 6.311 ± 0.047.

Consider RGLVFEGKLAFTVATVVFFW, for which the amyloid nucleation score is -1.19 ± 1.4.

CMMMYVCLLSSGHVGMSLGV yielded an amyloid nucleation score of 0.18 ± 0.43.

MNENCGFVKFVRSKKRFKDV displayed an amyloid nucleation score of -0.287 ± 0.39.

For LFKFYCKTYHTPLSLIYPFW, the amyloid nucleation score entry is “inactive”.

Substance KWQEQGVIFSNFLLHRHWDV showed an amyloid nucleation score of -1.23 ± 1.6.

Consider LWCVLHDVGGGSYSLDRYTG, for which the amyloid nucleation score is 0.379 ± 0.83.

NVIYFNVLVAPLHIPMLDLG yielded an amyloid nucleation score of 3.75 ± 0.14.

In turn, CLINFP gave an amyloid nucleation score of 0.722 ± 0.74.

For the substance LLWRVSPSTLTSAIFKCLHS, the amyloid nucleation score was -0.741 ± 0.86.

Turning to VLDQHPRDFESRGMVMANFY, the amyloid nucleation score stood at 1.55 ± 0.24.

Substance TNRWADQTNKDAHRQTCD registered an amyloid nucleation score of -0.591 ± 1.1.

ISTFLRFSQSDEQYYPTE showed an amyloid nucleation score of 0.496 ± 0.48.

In turn, FSCLNSFKRVFNFNIPASVC gave an amyloid nucleation score of -0.863 ± 1.

The substance SCYGEFEPFRESRMGRSNLA had an amyloid nucleation score of 0.538 ± 0.75.

As to IEDAALRSKEPGFVQHNYSS, the amyloid nucleation score was 4.17 ± 0.077.

GYELSMKATIRVVCRAIYFC came in with an amyloid nucleation score of 0.62 ± 0.41.

In turn, RVRSSMCGALWARKFYRTHI displayed an amyloid nucleation score of -0.116 ± 0.49.

RYFCAIWLGCGERRSRVSKW yielded an amyloid nucleation score of 1.38 ± 0.34.

Substance FNPLRVNYGLWDRSAR registered an amyloid nucleation score of 0.248 ± 0.83.

KAYRV: the amyloid nucleation score is -0.633 ± 0.39.

With PSWSPKAIKFQHVLYFVKFL, the amyloid nucleation score was determined as 0.236 ± 0.59.

Consider LTRKTVRKTSKNRIGLHHQT, for which the amyloid nucleation score result is “inactive”.

AWRSFIGYRMRVWIGYRGCY showed an amyloid nucleation score of 0.186 ± 0.95.

On to LVLGWRFIVPRVNLISLGFV, for which the amyloid nucleation score result was “inactive”.

In turn, NSRAGLYVISSSYCRSMLDR yielded an amyloid nucleation score of 1.48 ± 0.39.

As for WSIDVNTTACKFFFRCSSCN, the amyloid nucleation score was 1.43 ± 0.74.

LLCFIIILCSRELNVDA showed an amyloid nucleation score of 0.279 ± 1.2.

YFLICSLWPYVLPYCVCRFV gave an amyloid nucleation score of -0.728 ± 0.5.

For the substance VIFYSLYSSVWFDSIYEGLT, the amyloid nucleation score is -0.566 ± 1.5.

LNVNRWYTISL displayed an amyloid nucleation score of 0.972 ± 0.25.

On to RKAIFTSFSQ, for which the amyloid nucleation score result was “inactive”.

Consider VTFHLEARLAGLDLMGYSTS, for which the amyloid nucleation score came out at 0.835 ± 0.53.

In the case of LLVVRLNVCRRHMDFKYG, the amyloid nucleation score was -0.419 ± 0.39.

For TERFMYFKNLFVSSWTSHG, the amyloid nucleation score was 1.51 ± 0.14.

As for RLVESRLCASCVDGG, the amyloid nucleation score is -0.166 ± 0.46.

On to NGYRNMSRREQTCLR, for which the amyloid nucleation score is -0.055 ± 0.36.

For the substance PLRDKESVLMWLYSYWVTNI, the amyloid nucleation score is 0.017 ± 0.32.

Consider VHWIWGF, for which the amyloid nucleation score came to 0.228 ± 0.5.

With RNNSVLLLSSYANKRYSPAW, the amyloid nucleation score is -0.439 ± 0.78.

Substance WNNVSCIELSSVSWNPDEVG displayed an amyloid nucleation score of -0.302 ± 0.3.

Turning to LYFWFVCNFAEIDFTITL, the amyloid nucleation score amounted to 3.05 ± 0.097.

As for DHWSASIVIPVWSERNNSFG, the amyloid nucleation score is -0.373 ± 1.4.

Regarding TWQAWVGCWQYQRMGTEL, the amyloid nucleation score turned out to be 0.256 ± 0.58.

As for YRNLGGLLGIELINIMLLLW, the amyloid nucleation score is -0.429 ± 0.93.

CIVVMGSVAYHGRFYFVDVE came in with an amyloid nucleation score of 1.43 ± 0.76.

Consider LYMYRSYI, for which the amyloid nucleation score worked out at 0.137 ± 0.42.

The substance ARVSGILLVMLCRYHFGLRE yielded an amyloid nucleation score of 0.102 ± 0.69.

As to GLCDNHINVVVVS, the amyloid nucleation score came to 0.788 ± 0.81.

Consider GDELKRVWYLGTLSRMRGTE, for which the amyloid nucleation score is -0.574 ± 0.62.

RCLQKPMRLRSQKIKQCVLR displayed an amyloid nucleation score of -0.341 ± 1.4.

As to SWDSLGHYNGAIE, the amyloid nucleation score was -0.268 ± 0.54.

On to PVNLGSDVYYNVRSQCGSMY, for which the amyloid nucleation score was -0.218 ± 0.23.

With FCNSALLSQLGFLKTWDQRG, the amyloid nucleation score is -0.604 ± 1.6.

As for AFGAVFRGEKR, the amyloid nucleation score stood at 0.241 ± 1.4.

GRGLADISYVYRDVWICLAI showed an amyloid nucleation score of 0.83 ± 0.43.

On to AVLHLSDCERNYFTFTVNCG, for which the amyloid nucleation score worked out at 6.207 ± 0.049.

In the case of LNNYCCYIAKYVYWW, the amyloid nucleation score was 6.089 ± 0.044.

YCQSSWMSSFSTEFHKARLN yielded an amyloid nucleation score of 0.43 ± 0.39.

Substance RCLGVCYTLDVFRSRMLDKL came in with an amyloid nucleation score of -0.097 ± 0.44.

PDVVSTSLILGGLNSPELEH displayed an amyloid nucleation score of 0.016 ± 0.6.

For the substance FFVGLPYTNSYHIPHVF, the amyloid nucleation score entry is “inactive”.

With TSLVVVSYMVTL, the amyloid nucleation score was found to be 1.93 ± 0.42.

For the substance GSYLCLMTFFSLYEQHSCCC, the amyloid nucleation score entry was “inactive”.

For PGSANASLTERFLMKMVGED, the amyloid nucleation score amounted to 0.053 ± 0.78.

Substance AYTEMNLRIVERYSMNTIRP returned an amyloid nucleation score of 2.14 ± 0.26.

In turn, WSMLSADSRISYYIYQCSLF showed an amyloid nucleation score of 2.31 ± 0.32.

Turning to HFAPLFDYNLTGIKTLKTAD, the amyloid nucleation score was 0.1 ± 0.77.

As to RHSLIFDRTGRGYGARVPVE, the amyloid nucleation score result was “inactive”.

RRMKFDMSNGRQGSLVNHGR: the amyloid nucleation score turned out to be 0.214 ± 0.53.

GKLPYVFRDCNKTVLVMALF displayed an amyloid nucleation score of 0.947 ± 0.73.

As to PGLLMNRVPVSSTQYIYLEQ, the amyloid nucleation score is 0.029 ± 0.75.

On to DALDLRSWQGEL, for which the amyloid nucleation score was -0.274 ± 1.7.
